“And” between values parts separate entries of the source, which are not always exact repeats. Equal entries are not always repeated.
Details: Sphingobium indicum (strain DSM 16413 / CCM 7287 / MTCC 6362 / UT26 / NBRC 101211 / UT26S); pH 7.5; Thermal; fluorescence; Na-Hepes 50 mM; reversible: no; whole UniProt chain shown

B1: Haloalkane dehalogenase wild type, D4Z2G1 (protein)
chain: MSLGAKPFGEKKFIEIKGRRMAYIDEGTGDPILFQHGNPTSSYLWRNIMPHCAGLGRLIACDLIGMGDSDKLDPSGPERYAYAEHRDYLDALWEALDLGDRVVLVVHDWGSALGFDWARRHRERVQGIAYMEAIAMPIEWADFPEQDRDLFQAFRSQAGEELVLQDNVFVEQVLPGLILRPLSEAEMAAYREPFLAAGEARRPTLSWPRQIPIAGTPADVVAIARDYAGWLSESPIPKLFINAEPGALTTGRMRDFCRTWPNQTEITVAGAHFIQEDSPDEIGAAIAAFVRRLRPA
Tm: 51 °C and 49 °C

Reference: FireProtDB (doi:10.1002/cbic.201402128)
